Experimental findings from article PMC8682772, “Negative feedback for DARS2–Fis complex by ATP–DnaA supports the cell cycle-coordinated regulation for chromosome replication” (Nucleic Acids Research, 2021) are described below.

Series [1] concerns the molecule itself. Description: native gel or EMSA; DnaA preincubated with 3 uM ATP, then 30°C for 5 min in buffer G (20 mM HEPES–KOH pH 7.6, 80 mM KCl, 1 mM EDTA, 4 mM DTT, 5 mM magnesium acetate, 0.1 mg/ml BSA, 10% glycerol) with 35 nM 52-bp DARS2 FBS2–5 DNA and competitor λ-DNA; 7% polyacrylamide gel; oligomers counted as DnaA molecules on the DNA fragment (C1–C4).
The target in series [2] is T1, DnaA (Escherichia coli, UniProt P03004 1-467).
T1 sequence: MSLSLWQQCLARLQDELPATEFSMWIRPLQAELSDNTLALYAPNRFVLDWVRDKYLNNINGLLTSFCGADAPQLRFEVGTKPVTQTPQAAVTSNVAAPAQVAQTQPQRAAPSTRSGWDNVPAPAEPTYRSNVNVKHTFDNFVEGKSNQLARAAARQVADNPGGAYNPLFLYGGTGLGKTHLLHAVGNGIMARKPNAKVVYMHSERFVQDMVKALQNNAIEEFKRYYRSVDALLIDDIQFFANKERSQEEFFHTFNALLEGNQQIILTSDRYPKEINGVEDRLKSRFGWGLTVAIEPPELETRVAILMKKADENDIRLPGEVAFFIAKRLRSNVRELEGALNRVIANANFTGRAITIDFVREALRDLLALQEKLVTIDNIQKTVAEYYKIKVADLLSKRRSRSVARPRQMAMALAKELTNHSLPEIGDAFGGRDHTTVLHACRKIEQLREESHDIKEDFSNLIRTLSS
Description: EMSA; ADP; monomer to trimer complexes at suboptimal DnaA; EMSA: 20 mM HEPES-KOH pH 7.6, 80 mM KCl, 1 mM EDTA, 4 mM DTT, 5 mM Mg acetate, 0.1 mg/ml BSA, 10% glycerol, 3 uM ATP or ADP, lambda-DNA competitor, 35 nM DNA, 30 C 5 min; pull-down in same buffer with 400 nM FBS1 competitor, preincubations on ice. To be noted: protein: recombinant; blunt. For orientation: Mobility shift assays separate free from complexed probe on a gel.

Another series concerns the target DnaA;Fis (Escherichia coli;Escherichia coli, UniProt P03004;P0A6R3 1-467;1-98, |). Nature of the series: EMSA; ADP; DnaA and Fis bind independently; EMSA: 20 mM HEPES-KOH pH 7.6, 80 mM KCl, 1 mM EDTA, 4 mM DTT, 5 mM Mg acetate, 0.1 mg/ml BSA, 10% glycerol, 3 uM ATP or ADP, lambda-DNA competitor, 35 nM DNA, 30 C 5 min; pull-down in same buffer with 400 nM FBS1 competitor, preincubations on ice. To be noted: protein: recombinant;recombinant; tags: ;; copies: 1;2; blunt.

Another series concerns the target Fis (Escherichia coli, UniProt P0A6R3 1-98). Nature of the series: EMSA; C1 at 100-200 nM Fis, C2 at >=360 nM; EMSA: 20 mM HEPES-KOH pH 7.6, 80 mM KCl, 1 mM EDTA, 4 mM DTT, 5 mM Mg acetate, 0.1 mg/ml BSA, 10% glycerol, 3 uM ATP or ADP, lambda-DNA competitor, 35 nM DNA, 30 C 5 min; pull-down in same buffer with 400 nM FBS1 competitor, preincubations on ice. Conditions: protein: recombinant; chain copies: 2; blunt.

Series [3] concerns the target T1, DnaA. Description: EMSA; ATP; oligomers, trimer C3 a major form at >=480 nM DnaA; EMSA: 20 mM HEPES-KOH pH 7.6, 80 mM KCl, 1 mM EDTA, 4 mM DTT, 5 mM Mg acetate, 0.1 mg/ml BSA, 10% glycerol, 3 uM ATP or ADP, lambda-DNA competitor, 35 nM DNA, 30 C 5 min; pull-down in same buffer with 400 nM FBS1 competitor, preincubations on ice. To be noted: protein: recombinant; blunt.

The target in series [4] is T1, DnaA. Nature of the series: EMSA; ATP; trimer formation not considerably inhibited; EMSA: 20 mM HEPES-KOH pH 7.6, 80 mM KCl, 1 mM EDTA, 4 mM DTT, 5 mM Mg acetate, 0.1 mg/ml BSA, 10% glycerol, 3 uM ATP or ADP, lambda-DNA competitor, 35 nM DNA, 30 C 5 min; pull-down in same buffer with 400 nM FBS1 competitor, preincubations on ice. To be noted: protein: recombinant; blunt.

Series [5] concerns the target T1, DnaA. Nature of the series: EMSA; ATP; binding inhibited completely; EMSA: 20 mM HEPES-KOH pH 7.6, 80 mM KCl, 1 mM EDTA, 4 mM DTT, 5 mM Mg acetate, 0.1 mg/ml BSA, 10% glycerol, 3 uM ATP or ADP, lambda-DNA competitor, 35 nM DNA, 30 C 5 min; pull-down in same buffer with 400 nM FBS1 competitor, preincubations on ice. To be noted: protein: recombinant; blunt.

Where a chain is given by its changes, count along the chain named. Several values for one entry are separate records, joined by “and”; a condition that tells them apart may be missing. Equal values may be shown once.

Sequence of Fis (P0A6R3 whole entry): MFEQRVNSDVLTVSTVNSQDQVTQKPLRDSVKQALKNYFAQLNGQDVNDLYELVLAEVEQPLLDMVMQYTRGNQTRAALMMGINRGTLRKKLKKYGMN
Sequence of DnaA;Fis (P0A6R3 whole entry, one chain of several): as the sequence (P0A6R3 whole entry) above

B1: DnaA (replication initiator protein of Escherichia coli) (natural protein, UniProt P03004 1-467, looked up)
chain: T1 sequence
notes: DnaA, chromosomal replication initiator protein, Escherichia coli; four domains, Arg finger Arg285 in domain III; Preincubated with 3 uM ATP (ATP–DnaA) or ADP (ADP–DnaA) before the EMSA; The nucleotide state is told by the assay, not by a separate molecule; also called ATP–DnaA; ADP–DnaA; source: purified protein
One may read the stoichiometry N as the number of molecules, sites or subunits per partner or assembly. On to B1, for which, in series [1], the “stoichiometry N” value was 3 and 4.

B2: oriC R5MI2 R14 (dsDNA)
DNA 1: TCATTACCTGTGGATAACCTGTGGATAACCTGTGGATAACCTGTGGATAAAATGA
DNA 2: TCATTTTATCCACAGGTTATCCACAGGTTATCCACAGGTTATCCACAGGTAATGA
For B2, the binding result in the series with DnaA [2] was “binds”.

B3: FBS2-5 WT (dsDNA)
DNA 1: GGGTTGGCGAAAGATCAACCAATGCCGTATTTATCCACAGAATGTGCCACTA
DNA 2: TAGTGGCACATTCTGTGGATAAATACGGCATTGGTTGATCTTTCGCCAACCC
B3: the binding result in the series with DnaA;Fis, in the series with Fis and with DnaA [3] was “binds” in each case.

B4: FBS2-5 subDnaA box V-c (dsDNA)
DNA 1: B3 DNA 1 with A10G, A11G, A12G, A14G, T15C, A17G
DNA 2: B3 DNA 2 with T36C, A38G, T39C, T41C, T42C, T43C
As to B4, in the series with DnaA [4], the binding result is “binds”.

B5: FBS2-5 subDnaA box V (dsDNA)
DNA 1: B3 DNA 1 with T31A, T32C, T34G, C35G, A39T
DNA 2: B3 DNA 2 with T14A, G18C, A19C, A21G, A22T
With B5, the binding result with DnaA [5] is “no binding”.
